Consider four compounds from ChEMBL document CHEMBL1208712, “Synthesis and anti-HCV activity of 3',4'-oxetane nucleosides” (Bioorg Med Chem Lett, 2010).

The target of data set [1] is T1, UMP-CMP kinase (Homo sapiens) (UniProt P30085).
T1 sequence (whole entry): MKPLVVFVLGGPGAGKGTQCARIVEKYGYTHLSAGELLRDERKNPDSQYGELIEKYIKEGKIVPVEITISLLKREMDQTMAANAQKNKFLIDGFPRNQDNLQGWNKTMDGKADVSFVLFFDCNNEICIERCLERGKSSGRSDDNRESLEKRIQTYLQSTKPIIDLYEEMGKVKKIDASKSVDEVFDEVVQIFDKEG
Nature of the data set: Activity at human recombinant UMP-CMP kinase.

The test system of data set [2] is Nc1ccn([C@@H]2O[C@@]3(CO)CO[C@H]3[C@@H]2F)c(=O)n1. Nature of the data set: (§1) Activity at human recombinant deoxycytidine kinase expressed in HepG2 cells. Type of data set: cell-based.
Data set [3] has as its system Nc1ccn([C@@H]2O[C@@]3(CO)CO[C@H]3[C@H]2F)c(=O)n1. The data set is described as §1. Type of data set: cell-based.
The test system of data set [4] is Nc1ccn([C@@H]2O[C@@]3(CO)CO[C@H]3C2(F)F)c(=O)n1. The data set is described as §1. In kind it is cell-based.
For data set [5], the system named is Nc1ccn([C@@H]2O[C@@]3(CO)CO[C@H]3[C@@H]2F)c(=O)n1. Nature of the data set: (§2) Ratio of Kcat/Km for human recombinant deoxycytidine kinase.
Data set [6] relates to Nc1ccn([C@@H]2O[C@@]3(CO)CO[C@H]3[C@H]2F)c(=O)n1. Described as §2.
Data set [7] has as its system Nc1ccn([C@@H]2O[C@@]3(CO)CO[C@H]3C2(F)F)c(=O)n1. The description is as §2.

Calls of active or inactive are those of the source. The rule behind the calls is not given here.

Sequence of Deoxycytidine kinase (Homo sapiens), P27707 (P27707 whole entry): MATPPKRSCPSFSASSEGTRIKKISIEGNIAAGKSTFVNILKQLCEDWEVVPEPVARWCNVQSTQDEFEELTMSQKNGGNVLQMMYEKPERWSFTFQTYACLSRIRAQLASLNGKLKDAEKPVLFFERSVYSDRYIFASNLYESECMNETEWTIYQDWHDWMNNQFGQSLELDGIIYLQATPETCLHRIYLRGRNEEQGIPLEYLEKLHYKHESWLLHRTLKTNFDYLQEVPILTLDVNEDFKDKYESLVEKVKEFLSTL

Turning to `Nc1ccn([C@@H]2O[C@@]3(CO)CO[C@H]3[C@H]2F)c(=O)n1`, the result in data set [1] was inactive.
As to `Nc1ccn([C@@H]2O[C@@]3(CO)CO[C@H]3C2(F)F)c(=O)n1`, in data set [1], the result was inactive.
The same measure, in the same setting: then `Nc1ccn([C@@H]2O[C@@]3(CO)CO[C@H]3[C@@H]2F)c(=O)n1`, with “inactive”.
In general, Km refers to the concentration of substrate that gives half-maximal velocity. In general, kcat refers to the maximal rate divided by the concentration of active sites. As to “Deoxycytidine kinase (Homo sapiens), P27707”, the Km in data set [2] came to 81.1 µM; in data set [3], 61 µM; in data set [4] it was 27.6 µM. Moreover, the kcat in data set [2] turned out to be 0.122 s⁻¹; in data set [3], 0.0214 s⁻¹; in data set [4] it was 0.0599 s⁻¹. In addition, the kcat/Km (10'-3/microM/s) in data set [5] was found to be 1.5; in data set [7] it was 2.2. In addition, in data set [6], the kcat/Km was 3.5 ×10⁻⁴ /µM/s.
